Test results from patent US11685901B2, “Compositions and methods for organoid generation and disease modeling” (Salk Institute for Biological Studies, priority 2016, dated 2023).

B1: rhWNT4: recombinant human (rh)Wnt4 protein (R&D Systems) (protein, UniProt P56705 23-351, looked up)
Protein Wnt-4: SNWLYLAKLSSVGSISEEETCEKLKGLIQRQVQMCKRNLEVMDSVRRGAQLAIEECQYQFRNRRWNCSTLDSLPVFGKVVTQGTREAAFVYAISSAGVAFAVTRACSSGELEKCGCDRTVHGVSPQGFQWSGCSDNIAYGVAFSQSFVDVRERSKGASSSRALMNLHNNEAGRKAILTHMRVECKCHGVSGSCEVKTCWRAVPPFRQVGHALKEKFDGATEVEPRRVGSSRALVPRNAQFKPHTDEDLVYLEPSPDFCEQDMRSGVLGTRGRTCNKTSKAIDGCELLCCGRGFHTAQVELAERCSCKFHWCCFVKCRQCQRLVELHTCR
B2: rhWNT5a: recombinant human Wnt5a protein (protein, UniProt P41221 62-380, looked up)
Protein Wnt-5a: IIGAQPLCSQLAGLSQGQKKLCHLYQDHMQYIGEGAKTGIKECQYQFRHRRWNCSTVDNTSVFGRVMQIGSRETAFTYAVSAAGVVNAMSRACREGELSTCGCSRAARPKDLPRDWLWGGCGDNIDYGYRFAKEFVDARERERIHAKGSYESARILMNLHNNEAGRRTVYNLADVACKCHGVSGSCSLKTCWLQLADFRKVGDALKEKYDSAAAMRLNSRGKLVQVNSRFNSPTTQDLVYIDPSPDYCVRNESTGSLGTQGRLCNKTSEGMDGCELMCCGRGYDQFKTVQTERCHCKFHWCCYVKCKKCTEIVDQFVCK

Legend:
[1] = system: INS-1 cells; assay: Proinsulin-NanoLuc Gaussia luciferase insulin secretion assay in INS-1 cells; format: cell-based, rat; settings: INS-1 stably expressing Proinsulin-NanoLuc; G20 mM + 100 nM Ex4; 20 mM KCl
Procedure: INS-1 cells were infected with the virus by spinfection (800 g, 1 hour at 37 degrees Celsius) and then changed to fresh INS-1 growth media. Seventy-two (72) hours after transfection, INS-1 cells were treated with 5 μg/ml Blasticidin (Invitrogen) for 7 days to select for Proinsulin-NanoLuc expressing cells. For insulin secretion assay, the cells (5×10^4-1×10^5 cells/well in 96 well) were pre-cultured in 3 mM glucose KRBB (100 μl/well). The cells were then incubated in KRBB (100 μl/well) with 3 mM and then sequentially incubated with 20 mM glucose with or without 100 nM Exendine-4 or 3 mM glucose with 20 mM KCl (100 μl/well). To determine Gaussia Luciferase activity as indicator of insulin secretion levels, 10 μl of samples are used for Luciferase assay using Pierce Gaussia Luciferase Flash Assay Kit (Prod #16159, Thermo Scientific).

[2] = system: human islet-like organoids; assay: Gaussia luciferase insulin secretion assay in human islet-like organoids; format: cell-based; settings: 10 to 100 per assay
Procedure: Mouse islets, human islets and human islets like organoids were plated in their respective growth media with 10 μg/ml Polybrene® polymer (Santacruz). Viruses were then added. After overnight culture, cells were placed in fresh growth media. […] Then, insulin secretion assays were performed. […] The cells were then incubated in KRBB (100 μl/well) with 3 mM for 30 min and then sequentially incubated with 20 mM glucose with or without 100 nM Exendin-4 or 3 mM glucose with 20 mM KCl (100 μl/well). To determine Gaussia Luciferase activity as indicator of insulin secretion levels, 10 μl of samples are used for Luciferase assay using Pierce Gaussia Luciferase Flash Assay Kit (Prod #16159, Thermo Scientific).

[3] = system: human islet-like organoids; assay: hIAPP toxicity, propidium iodide staining of islet-like organoids; format: cell-based
Text: FIG. 7 is a schematic showing modeling of human Type 2 diabetes in a dish. Generation of functional human organs such as a liver, pancreas, and islets provides new therapeutic strategies in drug-screening and modeling of human type 2 diabetes.
Generation of functional human organs according to methods described herein provides new strategies for drug-screening and disease modeling. Specifically, functional organoids can be used as models of type 2 diabetes for drug screening (FIG. 7).

[4] = system: hiPSC-derived islet organoids; assay: Fluorescence imaging and FACS analysis of hiPSC-derived islet organoids (Mitotracker, Insulin-GFP); format: cell-based, human; settings: organoids day 27, 8 days treatment; for Insulin production (FACS): rhWNT4 100 ng/ml, rhWNT5a 400 ng/ml, conditioned media 50%, compared with PBS and control conditioned media
Procedure: FIGS. 12A-12H show a set of bar graphs and images illustrating the role of WNT proteins in the metabolic maturation of iPSC-derived islet organoids. […] FIG. 12B is a bar graph showing the induction of Esrrg gene expression in hiPSC-derived islet organoids, generated in the absence of supporting hADSC or HUVECs, in response to increasing doses of WNT4 (0, 10, 25, 50, 100, 200 ng/ml) and WNT5a (0, 25, 50, 100, 200, 400 ng/ml). FIG. 12C is a bar graph showing the induction of mitochondrial genes involved in oxidative phosphorylation (Cox7a2, Ndufa1, Ndufa7), lactate dehydrogenase (Ldha) and Fltp (a Wnt/planar cell polarity (PCP) effector and reporter gene) in hiPSC-derived islet organoids, generated in the absence of supporting hADSC or HUVECs, in response to increasing doses of WNT4 (0, 10, 25, 50, 100, 200 ng/ml) and WNT5a (0, 25, 50, 100, 200, 400 ng/ml). […] FIGS. 12F, 12G, and 12H show a set of bar graphs illustrating the results of FACS analyses of hiPSC-derived islet organoids (day 27) after 8 days treatment with PBS, WNT4 (100 ng/ml), WNT5a (400 ng/ml), control fibroblast conditioned media (50%), or WNT5a secreting fibroblast conditioned media (50%). The WNT proteins used were recombinant human (rh) proteins.
Human PSCs, including iPSC or ESC, were initially cultured in matrigel-coated plates (2 dimensional (2D) cultures. Cells were then treated with Accutase (Innovative Cell Technologies, Inc., San Diego, Calif.) to generate a single cell suspension, washed with PBS and centrifuged at 1000-1300 rpm for 5 minutes to pellet cells. Cells were resuspended with 3DKG Stem TeSR™ Base Medium (Stemcell Technologies, Cambridge, Mass.) with 10 μM Y-27632 (a RHO/ROCK pathway inhibitor compound) and cultured for an additional for 5 to 7 days until PSC sphere growth reached 50-100 μm diameter. Media was then replaced with differentiation media supplemented with 0.015% Kelcogel and 0.3% Methylcellulose. […]

[5] = system: hiPSC-derived islet organoids; assay: Gene expression (qPCR) in hiPSC-derived islet organoids treated with WNT proteins; format: cell-based, human; settings: for ERRγ-mitochondrial metabolic pathway: FIGS. 12A-12H; for Esrrg gene expression / expression of mitochondrial genes involved in oxidative phosphorylation (Cox7a2, Ndufa1, Ndufa7), lactate dehydrogenase (Ldha) and Fltp: organoids generated in the absence of hADSC or HUVECs, increasing doses rhWNT4 0-200 ng/ml, rhWNT5a 0-400 ng/ml
Procedure: Human PSCs, including iPSC or ESC, were initially cultured in matrigel-coated plates (2 dimensional (2D) cultures. Cells were then treated with Accutase (Innovative Cell Technologies, Inc., San Diego, Calif.) to generate a single cell suspension, washed with PBS and centrifuged at 1000-1300 rpm for 5 minutes to pellet cells. Cells were resuspended with 3DKG Stem TeSR™ Base Medium (Stemcell Technologies, Cambridge, Mass.) with 10 μM Y-27632 (a RHO/ROCK pathway inhibitor compound) and cultured for an additional for 5 to 7 days until PSC sphere growth reached 50-100 μm diameter. Media was then replaced with differentiation media supplemented with 0.015% Kelcogel and 0.3% Methylcellulose. The culture medium was changed to differentiation medium ([…]) containing 100 ng/ml human Activin (R&D Systems), 25 ng/ml recombinant human Wnt3a (R&D Systems) or 3 μM CHIR99021, a glycogen synthase kinase GSK-3 inhibitor (Axon Medchem, Reston, Va.; or Selleckchem) for 1 day and then to differentiation medium (S1) containing 100 ng/ml human Activin for another 2 days (Stage 1, Pancreatic Endoderm). Subsequently, the medium was replaced with differentiation medium (S2) containing 50 ng/ml FGF7 (R&D Systems) for 2 days, and then with differentiation medium (S3) containing 50 ng/ml FGF7, 0.25 μM SANT-1 (Sigma), 1 μM Retinoic Acid (Sigma), 100 nM LDN193189 (an ALK2 and ALK3 inhibitor, Sigma) and 100 nM α-Amyloid Precursor Protein Modulator TPB for 3 days. Subsequently, this medium was replaced with differentiation medium (S4) containing 0.25 μM SANT-1, 50 nM Retinoic Acid, 10 μM Alk5 inhibitor II, 1 μM T3 for 3 days. Subsequently, the medium was replaced with differentiation medium (S5) containing 100 nM LDN193189, 100 nM Gamma Secretase inhibitor XX GSiXX (Millipore) 10 μM Alk5 inhibitor II, 1 μM T3 for 7 days. Subsequently, the medium was replaced with differentiation medium (S5) containing 10 uM Trolox (Calbiochem), 2 μM R428 (Selleckchem), 1 mM N-acetyl cysteine, 10 μM Alk5 inhibitor II, 1 μM T3 for an additional 7 to 20 days. After confirmation of the insulin gene expression by either reporter expression or qPCR (typically on day 20-30), the medium was changed to differentiation medium (S5) containing 10 μM Trolox (Calbiochem), 2 μM R428 (Selleckchem), 1 mM N-acetyl cysteine, 10 μM Alk5 inhibitor II, 1 μM T3 and 100 ng/ml recombinant human (rh)Wnt4 (R&D Systems), 400 ng/ml rhWnt5a, or 50% Wnt5a conditioned medium for 1-20 days. Wnt5a conditioned medium was prepared by culturing an L-Wnt5a cell line (ATCC, CRL-2814) in DMEM with 10% FBS, 1% Penicillin-streptomycin for 4 days after cells had reached 70-100% confluence in T175-T225 Frasko cell culture flasks.
Total RNA was extracted using TRIzol reagent (Invitrogen) and RNeasy KIT (Qiagen). Reverse transcription was performed with a SuperScript III First-Strand Synthesis System kit (Invitrogen) or PrimeScript RT reagent kit (TAKARA). Real time quantitative RT-PCR (qPCR) was performed using SYBR Green (Bio-Rad).
(FIG. 12A). […] In addition, mitochondrial genes involved in oxidative phosphorylation (Cox7a2, Ndufa1, Ndufa7), lactate dehydrogenase (Ldha) and Fltp (a Wnt/planar cell polarity (PCP) effector and reporter gene) were induced in hiPSC-derived islet organoids that were generated in the absence of supporting hADSC or HUVECs, in response to increasing doses of rhWNT4 (0, 10, 25, 50, 100, 200 ng/ml) and rhWNT5a (0, 25, 50, 100, 200, 400 ng/ml), (FIG. 12C). Mitochondrial (Mitotracker; Mito-Red) and insulin (Insulin-GFP) levels were increased in hiPSC-derived islet organoids (day 27) after 8 days treatment with PBS or WNT4 (100 ng/ml). (FIG. 12D). Human iPSC-derived islet organoids (day 27) were generated after 8 days treatment with PBS or WNT4 (100 ng/ml). (FIG. 12E). […]

[6] = system: hiPSC-derived islet organoids; assay: Insulin secretion assay (human c-peptide ELISA) of hiPSC-derived islet organoids; format: cell-based; settings: organoids day 22, 100 ng/ml for 12 days, G3 mM, G20 mM, KCL20 mM, without hADSC and HUVECs
Procedure: Insulin release from intact islets was monitored using batch incubation methods (Yoshihara et al., 2010, Nat. Commun. 1:127). Briefly, overnight-cultured isolated pancreatic islets (RPMI-1640 supplemented with 10% (v/v) fetal bovine serum and 1% (v/v) Antibiotic-Antimycotic (Gibco)) were pre-cultured at 37° C. for 30 min (Krebs-Ringer bicarbonate buffer (KRBB) containing 129.4 mM NaCl, 3.7 mM KCl, 2.7 mM CaCl2, 1.3 mM KH2PO4, 1.3 mM MgSO4, 24.8 mM NaHCO3 (equilibrated with 5% CO2, 95% O2, pH7.4), 10 mM HEPES and 0.2% (v/v) BSA (fraction V, Sigma) (KRBH) with 3 mM glucose). Pancreatic islets were then incubated in KRBH buffer (500 μl/10 islets) with 3 mM or 20 mM glucose to determine insulin secretion levels. After 30 min, islets were pelleted by centrifugation and insulin levels determined by ELISA (Rat/mouse Insulin ELISA KIT (Millipore) and Human Insulin ELISA KIT (Millipore) for mouse and human islets, respectively). For human iPSC derived cells, the cells (1×10^6 cells/well in 24 well) were pre-cultured in 3 mM glucose KRBH buffer (500 μl/well). The cells were then incubated in KRBB (200 μl/well) with 3 mM or 20 mM glucose to determine c-peptide secretion levels as indicator of insulin secretion levels. After 30 min, the cells were pelleted by centrifugation and c-peptide levels were determined by human c-peptide ELISA KIT (Millipore).

expression of mitochondrial genes involved in oxidative phosphorylation (Cox7a2, Ndufa1, Ndufa7), lactate dehydrogenase (Ldha) and Fltp [5] | Molecule | Luciferase secretion (insulin secretion) [1] | stimulated insulin secretion of pooled organoids (secreted luciferase) [2] | Insulin production (FACS) [4] | ERRγ-mitochondrial metabolic pathway [5] | Esrrg gene expression [5] | further results
 | [Cl-].[K+] [potassium chloride] | increased | robust |  |  |  | 
 | Exendin-4 | increased |  |  |  |  | 
 | GLP-1: incretin |  | enhanced GSIS |  |  |  | 
 | hIAPP: human amyloid polypeptide, an inducer of β cell loss in type 2 diabetic patients (KCNTATCATQRLANFLVHSSNNFGAILSSTNVGSNTY; Islet amyloid polypeptide; UniProt P10997 34-70, looked up) |  |  |  |  |  | G0/G1 arrest ([3]; 24 hours): dose-dependently induced G0/G1 arrest; apoptosis (propidium iodide staining in G0/G1 stage cells) ([3]; increasing concentrations): induces apoptosis
induced | B1 |  |  | found | activate | induced | Mitochondrial (Mitotracker; Mito-Red) and insulin (Insulin-GFP) levels ([4]; 100 ng/ml): increased; functional maturation based on secretion of human c-peptide ([6]; listed as Wnt4): sufficient to induce in vitro functional maturation; functional maturation based on secretion of human c-peptide ([6]; listed as rhWnt4): functional maturation
induced | B2 |  |  | found | activate | induced | 
